Assays:
[1] = tested on: slices of liver; assay: Maceration of liver slices by reaction compositions at 65° C.; settings: 65° C.; for maceration of liver slice: 1 mg/ml Proteinase K, No Additives
Method: Initially, a series of reaction compositions were analyzed for their ability to disaggregate a biological sample, e.g., slices of liver. These reaction compositions comprised 100 mM Tris, pH 8.0, 20 mM dithiothreitol (DTT), and optionally,1 mg/ml Proteinase K, surfactants (e.g., cationic, nonionic and anionic detergents), chaotropes, or the additive 1-methyl-2-pyrollidinone (Sigma). Each reaction compositions was placed in a tube with a slice of liver and then incubated at 65° C. The tubes were observed periodically to determine which reaction compositions were able to efficiently macerate the sample.

[2] = tested on: BoDipy-labeled Casein Conjugate; assay: Proteinase K digestion of BoDipy-labeled Casein Conjugate (fluorescence); format: biochemical; settings: one hour, 60° C.
Source text: An assay was developed to measure the activity of Proteinase K with BoDipy-labeled Casein Conjugate (Enz Check Protease Assay Kit, Product number E6638; Molecular Probes, Eugene, Oreg.). The concentration of fluorescent BoDipy moieties in this derivatized conjugate is sufficiently high so that when the protein is intact, the fluorescence of individual moieties is quenched. Upon digestion of the derivatized casein by a protease, however, peptides containing a lower number of BoDipy dye molecules are released, resulting in an increase in fluorescence. To determine an initial dynamic range for an assay, BoDipy-labeled Casein was digested for one hour with a decreasing concentration of Proteinase K as follows. […] Following a one hour incubation at 60° C. with mixing, 100 μL aliquots were transferred to a 96-well optical plate (MicroAmp® Optical 96-Well Reaction Plate, Applied Biosystems, Foster City, Calif.) and the fluorescence was measured in an ABI Prism 7700 spectrophotometer (Applied Biosystems). The background fluorescence was determined by incubating the substrate in buffer without Proteinase K.

[3] = target: T1, Proteinase K (Parengyodontium album, UniProt P06873); assay: Effect of surfactants on Proteinase K digestion of dye-labeled casein substrate; format: biochemical; settings: water, 0 minutes incubation, ambient temperature
T1 construct: purchased Ambion 2546
Method: To test the effect of cationic surfactants on the activity of Proteinase K, a series of reaction compositions were prepared as follows. Reaction compositions comprised: Casein BoDipy conjugate (1 μg, 10 ng/μL), 10 mM Tris, pH 8, 20 mM CaCl2, 1% surfactant (shown in Table 2 below) and a dilution series of Proteinase K at concentrations of 20 μg/ml, 5 μg/ml, 1.25 μg/ml, 0.31 μg/ml, 0.078 μg/ml, 0.02 μg/ml and 0.005 μg/ml. […] Reaction tubes were incubated at 60° C. in a 96-well optical plate (MicroAmp® Optical 96-Well Reaction Plate, Applied Biosystems) and the amount of released fluorescence was measured at the indicated time points using an ABI Prism 7700.

B1: Proteinase K: protease (subtilisin), Ambion (protein, UniProt P06873 106-384, looked up)
Proteinase K: AAQTNAPWGLARISSTSPGTSTYYYDESAGQGSCVYVIDTGIEASHPEFEGRAQMVKTYYYSSRDGNGHGTHCAGTVGSRTYGVAKKTQLFGVKVLDDNGSGQYSTIIAGMDFVASDKNNRNCPKGVVASLSLGGGYSSSVNSAAARLQSSGVMVAVAAGNNNADARNYSPASEPSVCTVGASDRYDRRSSFSNYGSVLDIFGPGTSILSTWIGGSTRSISGTSMATPHVAGLAAYLMTLGKTTAASACRYIADTANKGDLSNIPFGTVNLLAYNNYQA
B1 was tested, and the “maceration of liver slice” value ([1]; 2-5 hr) was 0%, the “maceration of liver slice” value ([1]; 16-24 hr) was 75% and the “ability to macerate the liver sample (in words)” value [1] was “effectively digest the liver tissue, but only after extended incubation”. The “lowest Proteinase K concentration with released fluorescence detected” value [2] was 50 ng/mL, the fluorescence signal plateau ([2]; 10 μg/ml BoDipy-labeled Casein Conjugate) was “around 30,000 fluorescence units” and the “proteolytic activity of Proteinase K without surfactant” value [3] was “high proteolytic activity”.
